“Also recorded” adds a separate entry of the source.
System: P. acnes biofilms
Test: Screen of enzymes that degrade P. acnes biofilms (crystal violet)
Type: cell-based
Conditions: enzymes 0.01 mg/mL, 30° C., 30 mins
Procedure: FIG. 4. A screen to select enzymes that can degrade P. acnes biofilms. P. acnes was grown in polystyrene microtiter plates to stimulate biofilm production. Enzymes were added at 0.01 mg/mL to the wells and incubated at 30° C. for 30 mins. The degraded biofilm was washed away with phosphate buffered saline (PBS), and the residual biofilm in each well was quantified by staining with crystal violet and recording absorbance at 590 nm.
Without being bound by any scientific theory, we hypothesized that biofilms might present a significant barrier to phage killing of sessile P. acnes cells. […] In order to determine whether biofilm degradation would improve phage killing, a number of enzymes was screened to find a BDE specific for P. acnes. The screen comprised three classes of enzymes that might degrade types of materials that may be found in biofilms: DNA, polysaccharides, and proteins.

B1: dispersin: a glycoside hydrolase from Aggregatibacter actinomycetemcomitans, biofilm degrading enzyme (protein)
chain: MNCCVKGNSIYPQKTSTKQTGLMLDIARHFYSPEVIKSFIDTISLSGGNFLHLHFSDHENYAIESHLLNQRAENAVQGKDGIYINPYTGKPFLSYRQLDDIKAYAKAKGIELIPELDSPNHMTAIFKLVQKDRGVKYLQGLKSRQVDDEIDITNADSITFMQSLMSEVIDIFGDTSQHFHIGGDEFGYSVESNHEFITYANKLSYFLEKKGLKTRMWNDGLIKNTFEQINPNIEITYWSYDGDTQDKNEAAERRDMRVSLPELLAKGFTVLNYNSYYLYIVPKASPTFSQDAAFAAKDVIKNWDLGVWDGRNTKNRVQNTHEIAGAALSIWGEDAKALKDETIQKNTKSLLEAVIHKTNGDE
modifications: Aggregatibacter actinomycetemcomitans
notes: a glycoside hydrolase from Aggregatibacter actinomycetemcomitans, biofilm degrading enzyme
  P. acnes biofilm degradation (residual biofilm, absorbance at 590 nm): best glycoside depolymerase amongst those tested; also recorded: best rates of biofilm degradation

B2: proteinase K: protease screened as P. acnes biofilm degrading enzyme (protein, UniProt P06873 106-384, looked up)
Proteinase K: AAQTNAPWGLARISSTSPGTSTYYYDESAGQGSCVYVIDTGIEASHPEFEGRAQMVKTYYYSSRDGNGHGTHCAGTVGSRTYGVAKKTQLFGVKVLDDNGSGQYSTIIAGMDFVASDKNNRNCPKGVVASLSLGGGYSSSVNSAAARLQSSGVMVAVAAGNNNADARNYSPASEPSVCTVGASDRYDRRSSFSNYGSVLDIFGPGTSILSTWIGGSTRSISGTSMATPHVAGLAAYLMTLGKTTAASACRYIADTANKGDLSNIPFGTVNLLAYNNYQA
  P. acnes biofilm degradation (residual biofilm, absorbance at 590 nm): good activity

Reference: patent US12576024B2, “Compositions comprising Propionibacterium acnes bacteriophages for treating acne” (priority 2017, dated 2026)
